Consider one substance from paper PMC11063343.

For this assay, the target named is SARS-CoV-2 S1 spike domain. Kind of assay: SPR. The settings on record: 2.5 µM SARS-CoV-2-S1; parent: est. 450; read off a plot.

Regarding “cellugyrin N-Term peptide Y6A; K10A; F15A”, the response was found to be 45 RU.
